Reference: paper PMC12015307 (Nature Communications, 2025)

B1: 15-bp dsDNA (dsDNA)
DNA 1: GATAAGGACTCGTAT
DNA 2: ATACGAGTCCTTATC
B2: 80-nt ssDNA (ssDNA)
DNA: CGCCTACATACCTCGCTCTGCTAATCCTGTTACCAGTGGCTGCTGCCAGTGGCGATAAGTCGTGTCTTACCGGGTTGGAC
B3: 20-bp dsDNA (dsDNA)
DNA 1: GATAAGGACTCGTATGTACC
DNA 2: GGTACATACGAGTCCTTATC
B4: His-SAMD9, recombinant full-length human SAMD9 (natural protein)
chain: MAKQLNLPENTDDWTKEDVNQWLESHKIDQKHREILTEQDVNGAVLKWLKKEHLVDMGITHGPAIQIEELFKELRKTAIEDSIQTSKMGKPSKNAPKDQTVSQKERRETSKQKQKGKENPDMANPSAMSTTAKGSKSLKVELIEDKIDYTKERQPSIDLTCVSYPFDEFSNPYRYKLDFSLQPETGPGNLIDPIHEFKAFTNTATATEEDVKMKFSNEVFRFASACMNSRTNGTIHFGVKDKPHGKIVGIKVTNDTKEALINHFNLMINKYFEDHQVQQAKKCIREPRFVEVLLPNSTLSDRFVIEVDIIPQFSECQYDYFQIKMQNYNNKIWEQSKKFSLFVRDGTSSKDITKNKVDFRAFKADFKTLAESRKAAEEKFRAKTNKKEREGPKLVKLLTGNQDLLDNSYYEQYILVTNKCHPDQTKHLDFLKEIKWFAVLEFDPESNINGVVKAYKESRVANLHFPSVYVEQKTTPNETISTLNLYHQPSWIFCNGRLDLDSEKYKPFDPSSWQRERASDVRKLISFLTHEDIMPRGKFLVVFLLLSSVDDPRDPLIETFCAFYQDLKGMENILCICVHPHIFQGWKDLLEARLIKHQDEISSQCISALSLEEINGTILKLKSVTQSSKRLLPSIGLSTVLLKKEEDIMTALEIICENECEGTLLEKDKNKFLEFKASKEEDFYRGGKVSWWNFYFSSESYSSPFVKRDKYERLEAMIQNCADSSKPTSTKIIHLYHHPGCGGTTLAMHILWELRKKFRCAVLKNKTVDFSEIGEQVTSLITYGAMNRQEYVPVLLLVDDFEEQDNVYLLQYSIQTAIAKKYIRYEKPLVIILNCMRSQNPEKSARIPDSIAVIQQLSPKEQRAFELKLKEIKEQHKNFEDFYSFMIMKTNFNKEYIENVVRNILKGQNIFTKEAKLFSFLALLNSYVPDTTISLSQCEKFLGIGNKKAFWGTEKFEDKMGTYSTILIKTEVIECGNYCGVRIIHSLIAEFSLEELKKSYHLNKSQIMLDMLTENLFFDTGMGKSKFLQDMHTLLLTRHRDEHEGETGNWFSPFIEALHKDEGNEAVEAVLLESIHRFNPNAFICQALARHFYIKKKDFGNALNWAKQAKIIEPDNSYISDTLGQVYKSKIRWWIEENGGNGNISVDDLIALLDLAEHASSAFKESQQQSEDREYEVKERLYPKSKRRYDTYNIAGYQGEIEVGLYTIQILQLIPFFDNKNELSKRYMVNFVSGSSDIPGDPNNEYKLALKNYIPYLTKLKFSLKKSFDFFDEYFVLLKPRNNIKQNEEAKTRRKVAGYFKKYVDIFCLLEESQNNTGLGSKFSEPLQVERCRRNLVALKADKFSGLLEYLIKSQEDAISTMKCIVNEYTFLLEQCTVKIQSKEKLNFILANIILSCIQPTSRLVKPVEKLKDQLREVLQPIGLTYQFSEPYFLASLLFWPENQQLDQHSEQMKEYAQALKNSFKGQYKHMHRTKQPIAYFFLGKGKRLERLVHKGKIDQCFKKTPDINSLWQSGDVWKEEKVQELLLRLQGRAENNCLYIEYGINEKITIPITPAFLGQLRSGRSIEKVSFYLGFSIGGPLAYDIEIV

Assays:
His-SAMD9 = His-SAMD9 (Homo sapiens, UniProt Q5K651 1-1589); experiment: EMSA
native gel or EMSA = target: the molecule itself; experiment: native gel or EMSA

| Binder | binding result (His-SAMD9) | binding result (native gel or EMSA) |
| --- | --- | --- |
| B1 | no binding |  |
| B2 | no binding |  |
| B3 | no binding |  |
| B4 |  | binds |
